Results taken from the supplement of paper PMC10567573.

B1: SPSB1 (parent)
chain: DMRDPTYRPLKQELQGLDYCKPTR

Variants of: B1
Test: protein stability index of a GFP-peptide fusion (GPS, HEK-293T) (PSI 1-6); higher = more stable
Conditions: c terminus: a fixed tail appended
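Also: lentivirally expressed fusions sorted by FACS into six bins by GFP to DsRed ratio, PSI derived from sequencing read proportions per bin multiplied by bin number.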

Row | Variant | protein stability index
1 | DMTDPTYRPLKQELQGLDYCKPTR | 3.42
2 | DMCDPTYRPLKQELQGLDYCKPTR | 2.9
3 | DMGDPTYRPLKQELQGLDYCKPTR | 3.21
4 | DMMDPTYRPLKQELQGLDYCKPTR | 2.99
5 | DMYDPTYRPLKQELQGLDYCKPTR | 2.8
6 | DMRDPTYPPLKQELQGLDYCKPTR | 3.17
7 | DMRDPTYCPLKQELQGLDYCKPTR | 2.79
8 | DMRDPTYEPLKQELQGLDYCKPTR | 3.55
9 | DMRDPTYLPLKQELQGLDYCKPTR | 3.23
10 | DMRDPTYWPLKQELQGLDYCKPTR | 2.99
11 | DMRDPTYFPLKQELQGLDYCKPTR | 2.6
12 | DMRDPTYIPLKQELQGLDYCKPTR | 3.31
13 | DMRDPTYRPLKQEFQGLDYCKPTR | 3.43
14 | DMRDPTYRPLKQEAQGLDYCKPTR | 4.04
15 | DMRDPTYRPLKQESQGLDYCKPTR | 4.24
16 | DMRDPTYRPLKQENQGLDYCKPTR | 3.95
17 | DMRDPTYRPLKQEKQGLDYCKPTR | 4.5
18 | DMRDPTYRPLKQEMQGLDYCKPTR | 3.68
19 | DMRDPTYRPLKQECQGLDYCKPTR | 3.71
20 | DMRDPTYRPLKQETQGLDYCKPTR | 4.28
21 | DMRDPTYRPLKQEHQGLDYCKPTR | 4.03
22 | DMRDPTYRPLKQEQQGLDYCKPTR | 4.29
23 | DMRDKTYRPLKQELQGLDYCKPTR | 3.28
24 | DMRDDTYRPLKQELQGLDYCKPTR | 3.1

Row | Variant | protein stability index
25 | DMRDWTYRPLKQELQGLDYCKPTR | 2.76
26 | DMRDLTYRPLKQELQGLDYCKPTR | 3.53
27 | DMRDQTYRPLKQELQGLDYCKPTR | 3.55
28 | DMRDCTYRPLKQELQGLDYCKPTR | 3.21
29 | DMRDSTYRPLKQELQGLDYCKPTR | 3.61
30 | DMRDRTYRPLKQELQGLDYCKPTR | 2.71
31 | DMRDPTYRQLKQELQGLDYCKPTR | 2.72
32 | DMRDPTYRILKQELQGLDYCKPTR | 3.32
33 | DMRDPTYRKLKQELQGLDYCKPTR | 2.94
34 | DMRDPTYRNLKQELQGLDYCKPTR | 3.35
35 | DMRDPTYRELKQELQGLDYCKPTR | 3.67
36 | DMRDPTYRPLKQELQGLDYCKCTR | 3.71
37 | DMRDPTYRPLKQELQGLDYCKHTR | 4.15
38 | DMRDPTYRPLKQELQGLDYCKWTR | 2.84
39 | DMRDPTYRPLKQELQGLDYCKDTR | 4.68
40 | DMRDPTYRPLKQELQGLDYCKATR | 3.44
41 | DMRDPTYRPLKQELQGLDYCKVTR | 2.9
42 | DMRDPTYRPLKQELQGLDYCKRTR | 4.4
43 | DMRDPTYRPLKQELQGLDYCKFTR | 2.85
44 | DMRDPTYRPLKQELQGLDYCKETR | 4.79
45 | DMRDPTYRPLKQELQGLDYCKQTR | 4.26
46 | DMRDPTYRPLKQELQGLDYCKGTR | 4.1
47 | DMRDPTYRPLKQTLQGLDYCKPTR | 3.18
48 | DMRDPTYRPLKQALQGLDYCKPTR | 3.09

Row | Variant | protein stability index
49 | DMRDPTYRPLKQLLQGLDYCKPTR | 2.42
50 | DMRDPTYRPLKQNLQGLDYCKPTR | 3.03
51 | DMRDPTYRPLKQRLQGLDYCKPTR | 2.98
52 | DMRDPTYRPLVQELQGLDYCKPTR | 3.45
53 | DMRDPTYRPLAQELQGLDYCKPTR | 3.68
54 | DMRDPTYRPLNQELQGLDYCKPTR | 4.04
55 | DMRDPTYRPLPQELQGLDYCKPTR | 3.3
56 | DMRDPTYRPLLQELQGLDYCKPTR | 3.24
57 | DMRDPTYRPLCQELQGLDYCKPTR | 2.48
58 | DMRDPTYRPLYQELQGLDYCKPTR | 4.04
59 | DMRDPTRRPLKQELQGLDYCKPTR | 2.51
60 | DMRDPTERPLKQELQGLDYCKPTR | 3.86
61 | DMRDPTTRPLKQELQGLDYCKPTR | 3.68
62 | DMRDPTDRPLKQELQGLDYCKPTR | 3.61
63 | DMRDPTVRPLKQELQGLDYCKPTR | 3.5
64 | DMRDPTARPLKQELQGLDYCKPTR | 2.08
65 | DMRDPTYRPLKQELKGLDYCKPTR | 3.59
66 | DMRDPTYRPLKQELPGLDYCKPTR | 2.67
67 | DMRDPTYRPLKQELYGLDYCKPTR | 3.4
68 | DMRDPTYRPLKQELLGLDYCKPTR | 2.81
69 | DMRDPTYRPLKQELDGLDYCKPTR | 2.6
70 | DMRDPTYRPLKQELFGLDYCKPTR | 2.6
71 | DMRDPTYRPLKQELSGLDYCKPTR | 3.59
72 | DMRDPTYRPLKQELAGLDYCKPTR | 3.32

Row | Variant | protein stability index
73 | DMRDPTYRPLKQELHGLDYCKPTR | 2.7
74 | DMRDPTYRPLKQELQGLDYCVPTR | 3.65
75 | DMRDPTYRPLKQELQGLDYCAPTR | 2.9
76 | DMRDPTYRPLKQELQGLDYCRPTR | 3.5
77 | DMRDPTYRPLKQELQGLDYCSPTR | 2.92
78 | DMRDPTYRPLKQELQGLDYCEPTR | 2.76
79 | DMRDPTYRPLKQELQGLDYCHPTR | 2.46
80 | DMRDPTYRPLKQELQGLDYCWPTR | 1.98
81 | DMRDPTYRPLKQELQGLDYCQPTR | 2.64
82 | DMRDPTYRPLKQELQGLDYCYPTR | 2.18
83 | DMRDPTYRPLKQELQGLDYCKPTM | 1.64
84 | DMRDPTYRPLKQELQGLDYCKPTD | 4.59
85 | DMRDPTYRPLKQELQGLDYCKPTY | 2.21
86 | DMRDPTYRPLKQELQGLDYCKPTQ | 3.18
87 | DMRDPTYRPLKQELQGLDYCKPTH | 2.98
88 | DMRDPTYRPLKQELQGLDYCKPTT | 3.27
89 | DMRDPTYRPLKQELQGLDYCKPTS | 3.68
90 | DMRDPTYRPLKQELQGLDYCKPTL | 1.6
91 | DMRDPTYRPLKQELQGLDYCKPCR | 3.3
92 | DMRDPTYRPLKQELQGLDYCKPFR | 2.09
93 | DMRDPTYRPLKQELQGLDYCKPVR | 3.29
94 | DMRDPTYRPLKQELQGLDYCKPMR | 2.87
95 | DMRDPTYRPLKQELQGLDYCKPGR | 4.26
96 | DMRDPTYRPLKQELQGLDYCKPSR | 2.92

Row | Variant | protein stability index
97 | DMRDPTYRPLKQELQGLDYCKPLR | 2.99
98 | DMRDPTYRPLKQELQGLLYCKPTR | 2.95
99 | DMRDPTYRPLKQELQGLYYCKPTR | 2.99
100 | DMRDPTYRPLKQELQGLIYCKPTR | 2.89
101 | DMRDPTYRPLKQELQGLCYCKPTR | 3.08
102 | DMRDPTYRPLKQELQGLKYCKPTR | 3.53
103 | DMRDPTYRPLKQELQGLWYCKPTR | 2.1
104 | DMRDPTYRPLKQELQGLNYCKPTR | 2.28
105 | DMRDPTYRPLKQELQGLGYCKPTR | 3.81
106 | DMRDPTYRPLKQELQGRDYCKPTR | 3.8
107 | DMRDPTYRPLKQELQGPDYCKPTR | 3.96
108 | DMRDPTYRPLKQELQGMDYCKPTR | 4.12
109 | DMRDPTYRPLKQELQGQDYCKPTR | 4.51
110 | DMRDPTYRPLKQELQGHDYCKPTR | 4.39
111 | DMRDPTYRPLKQELQGEDYCKPTR | 4.37
112 | DMRDPTYRPLKQELQGWDYCKPTR | 4.02
113 | DMRDPTYRPLKQELQGSDYCKPTR | 4.18
114 | DMRDPTYRPLKQELQGCDYCKPTR | 3.85
115 | DMRDPTYRPLKQELQGNDYCKPTR | 4.33
116 | DMRDPTYRPEKQELQGLDYCKPTR | 4.03
117 | DMRDPTYRPPKQELQGLDYCKPTR | 3.37
118 | DMRDPTYRPKKQELQGLDYCKPTR | 3.22
119 | DMRDPTYRPSKQELQGLDYCKPTR | 3.56
120 | DMRDPTYRPIKQELQGLDYCKPTR | 3.67

Row | Variant | protein stability index
121 | DMRDPTYRPFKQELQGLDYCKPTR | 3.56
122 | DMRDPTYRPRKQELQGLDYCKPTR | 2.93
123 | DMRDPTYRPGKQELQGLDYCKPTR | 3.49
124 | DMRDPTYRPTKQELQGLDYCKPTR | 3.74
125 | DMRDPTYRPYKQELQGLDYCKPTR | 2.81
126 | DMRDPTYRPDKQELQGLDYCKPTR | 3.76
127 | DMRDPFYRPLKQELQGLDYCKPTR | 3.24
128 | DMRDPAYRPLKQELQGLDYCKPTR | 3.33
129 | DMRDPSYRPLKQELQGLDYCKPTR | 3.59
130 | DMRDPYYRPLKQELQGLDYCKPTR | 2.98
131 | DMRDPWYRPLKQELQGLDYCKPTR | 4.09
132 | DMRDPDYRPLKQELQGLDYCKPTR | 2.72
133 | DMRDPNYRPLKQELQGLDYCKPTR | 3.13
134 | DMRDPVYRPLKQELQGLDYCKPTR | 3.31
135 | DMRDPRYRPLKQELQGLDYCKPTR | 3.62
136 | DMRDPHYRPLKQELQGLDYCKPTR | 2.9
137 | DMRDPCYRPLKQELQGLDYCKPTR | 2.91
138 | DMRDPQYRPLKQELQGLDYCKPTR | 3.55
139 | DMRDPTYRPLKQELQGLDACKPTR | 4.53
140 | DMRDPTYRPLKQELQGLDFCKPTR | 3.18
141 | DMRDPTYRPLKQELQGLDPCKPTR | 4.56
142 | DMRDPTYRPLKQELQGLDLCKPTR | 4.37
143 | DMRDPTYRPLKQELQGLDHCKPTR | 4.18
144 | DMRDPTYRPLKQELQGLDSCKPTR | 4.35

Row | Variant | protein stability index
145 | DMRDPTYRPLKQELQGLDWCKPTR | 3.04
146 | DMRDPTYRPLKQELQALDYCKPTR | 3.73
147 | DMRDPTYRPLKQELQCLDYCKPTR | 3.17
148 | DMRDPTYRPLKQELQFLDYCKPTR | 2.24
149 | DMRDPTYRPLKQELQQLDYCKPTR | 3.94
150 | DMRDPTYRPLKQELQNLDYCKPTR | 3.24
151 | DMRDPTYRPLKQELQKLDYCKPTR | 3.34
152 | DMRDPTYRPLKQELQPLDYCKPTR | 3.06
153 | DMRDPTYRPLKQELQELDYCKPTR | 2.93
154 | DMRDPTYRPLKQELQSLDYCKPTR | 3.32
155 | DMRDPTYRPLKQELQGLDYIKPTR | 2.77
156 | DMRDPTYRPLKQELQGLDYRKPTR | 4.42
157 | DMRDPTYRPLKQELQGLDYEKPTR | 4.41
158 | DMRDPTYRPLKQELQGLDYAKPTR | 3.34
159 | DMRDPTYRPLKQELQGLDYQKPTR | 2.8
160 | DMRDPTYRPLKQELQGLDYGKPTR | 4.3
161 | DMRLPTYRPLKQELQGLDYCKPTR | 2.77
162 | DMRAPTYRPLKQELQGLDYCKPTR | 3.54
163 | DMRPPTYRPLKQELQGLDYCKPTR | 2.72
164 | DMRIPTYRPLKQELQGLDYCKPTR | 3.13
165 | DMRKPTYRPLKQELQGLDYCKPTR | 3.13
166 | DMRHPTYRPLKQELQGLDYCKPTR | 2.7
167 | DMRMPTYRPLKQELQGLDYCKPTR | 2.73
168 | DMRDPTYRPLKFELQGLDYCKPTR | 2.67

Row | Variant | protein stability index
169 | DMRDPTYRPLKCELQGLDYCKPTR | 2.74
170 | DMRDPTYRPLKKELQGLDYCKPTR | 2.94
171 | DMRDPTYRPLKNELQGLDYCKPTR | 3.17
172 | DMRDPTYRPLKHELQGLDYCKPTR | 3.46
173 | DMRDPTYRPLKLELQGLDYCKPTR | 3.84
174 | DMRDPTYRPLKAELQGLDYCKPTR | 3.12
175 | DMRDPTYRPLKYELQGLDYCKPTR | 3.12
176 | PMRDPTYRPLKQELQGLDYCKPTR | 3.82
177 | CMRDPTYRPLKQELQGLDYCKPTR | 3.94
178 | IMRDPTYRPLKQELQGLDYCKPTR | 2.57
179 | TMRDPTYRPLKQELQGLDYCKPTR | 3.62
180 | RMRDPTYRPLKQELQGLDYCKPTR | 3.32
181 | QMRDPTYRPLKQELQGLDYCKPTR | 2.83
182 | FMRDPTYRPLKQELQGLDYCKPTR | 3
183 | DGRDPTYRPLKQELQGLDYCKPTR | 3.78
184 | DPRDPTYRPLKQELQGLDYCKPTR | 4.62
185 | DYRDPTYRPLKQELQGLDYCKPTR | 2.72
186 | DARDPTYRPLKQELQGLDYCKPTR | 3.22
187 | DFRDPTYRPLKQELQGLDYCKPTR | 3.42
188 | DWRDPTYRPLKQELQGLDYCKPTR | 2.57
